Data: patent publication US20210214460A1 (AstraZeneca / MedImmune, published 2021)
Residue numbers refer to the chain shown, from its start. Where two headings read alike, the source gives them in different places.

T1: membrane-bound human BCMA (human, UniProt Q02223 1-184)
T1 sequence (looked up): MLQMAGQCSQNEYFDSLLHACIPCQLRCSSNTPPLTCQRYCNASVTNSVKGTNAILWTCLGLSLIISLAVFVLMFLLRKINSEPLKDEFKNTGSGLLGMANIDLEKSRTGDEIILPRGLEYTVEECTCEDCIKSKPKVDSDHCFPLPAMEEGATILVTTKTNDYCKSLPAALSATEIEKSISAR

T2: soluble BCMA (sBCMA) in conditioned media collected from Ad293 cells expressing human BCMA (human, UniProt Q02223 1-54)
T2 sequence (looked up): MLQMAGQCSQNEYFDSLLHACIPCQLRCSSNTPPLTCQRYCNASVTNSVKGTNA

B1: J6M0-SG3249 antibody-drug conjugate (antibody, INN chains, looked up, V domains shown)
VH: QVQLVQSGAEVKKPGSSVKVSCKASGGTFSNYWMHWVRQAPGQGLEWMGATYRGHSDTYYNQKFKGRVTITADKSTSTAYMELSSLRSEDTAVYYCARGAIYDGYDVLDNWGQGTLVTVSS
VL: DIQMTQSPSSLSASVGDRVTITCSASQDISNYLNWYQQKPGKAPKLLIYYTSNLHSGVPSRFSGSGSGTDFTLTISSLQPEDFATYYCQQYRKLPWTFGQGTKLEIK
modifications: SG3249 (tesirine) drug payload
B2: J6M0-mc-MMAF antibody-drug conjugate (antibody, INN chains, looked up, V domains shown)
VH: B1 VH
VL: B1 VL
modifications: mc-MMAF drug payload
B3: 15B2GL-SG3249 antibody-drug conjugate (antibody, V domains shown)
VH: EVQLVESGGGLVKPGGSLRLSCAASGFTFRSYSMNWVRQAPGKGLEWVSSISGSSNYIYYADSVKGRFTISRDNAKNSLYLQMNSLRAEDTAVYYCARGGNYYVEYFQYWGQGTLVTVSS
VL: EIVLTQSPGTLSLSPGERATLSCRASQYISSNYLAWYQQKPGQAPRLLIYGASNRATGIPDRFSGSGSGTDFTLTISRLEPEDFAVYYCQQYGSSPITFGQGTKLEIK
modifications: PBD payload SG3249 conjugated site-specifically; residue not stated; DAR 1.82
B4: I09-SG3249 antibody-drug conjugate (antibody, V domains shown)
VH: B3 VH with R30S, Y103F, Y109Q
VL: B3 VL with G93S, S95D
modifications: PBD payload SG3249 conjugated site-specifically; residue not stated; DAR 1.82

Legend:
Assay in all cases: cell-based or functional assay
[1] = molecular target: T1, membrane-bound human BCMA
[2] = molecular target: soluble BCMA (sBCMA) in conditioned media collected from Ad293 cells expressing human BCMA (human) (UniProt Q02223)
[3] = molecular target: T1, membrane-bound human BCMA; remark: listed apart in the source
[4] = molecular target: T2, soluble BCMA (sBCMA) in conditioned …
[5] = molecular target: T1, membrane-bound human BCMA; remark: listed apart in the source

Binder	IC50 (ng/mL) of killing of MM.1S cells with 0 ng/mL sBCMA [1]	IC50 (ng/mL) of killing of MM.1S cells with 75 ng/mL sBCMA [1]	IC50 (ng/mL) of killing of MM.1S cells with 270 ng/mL sBCMA [1]	IC50 (ng/mL) of killing of MM.1S cells with 720 ng/mL sBCMA [1]	Fold loss of potency, killing of MM.1S cells with 0 ng/mL sBCMA (reference) [2]	Fold loss of potency, killing of MM.1S cells with 75 ng/mL sBCMA [2]	Fold loss of potency, killing of MM.1S cells with 270 ng/mL sBCMA [2]	Fold loss of potency, killing of MM.1S cells with 720 ng/mL sBCMA [2]	IC50 (ng/mL) of killing of MM.1S cells with 0 ng/mL sBCMA [3]	IC50 (ng/mL) of killing of MM.1S cells with 75 ng/mL sBCMA [3]	IC50 (ng/mL) of killing of MM.1S cells with 270 ng/mL sBCMA [3]	IC50 (ng/mL) of killing of MM.1S cells with 720 ng/mL sBCMA [3]	Fold loss of potency, killing of MM.1S cells with 0 ng/mL sBCMA (reference) [4]	Fold loss of potency, killing of MM.1S cells with 75 ng/mL sBCMA [4]	Fold loss of potency, killing of MM.1S cells with 270 ng/mL sBCMA [4]	Fold loss of potency, killing of MM.1S cells with 720 ng/mL sBCMA [4]	other results
B1	4.82 ng/mL	12.8 ng/mL	32.3 ng/mL	92.9 ng/mL	1 fold	2.66 fold	6.7 fold	19.3 fold	–	–	–	–	–	–	–	–	–
B2	29.3 ng/mL	55.5 ng/mL	160 ng/mL	1460 ng/mL	1 fold	1.9 fold	5.45 fold	49.8 fold	–	–	–	–	–	–	–	–	–
B3	–	–	–	–	–	–	–	–	14.5 ng/mL	16.1 ng/mL	22.9 ng/mL	29.1 ng/mL	1 fold	1.11 fold	1.58 fold	2.01 fold	IC50 (ng/mL), in vitro cytotoxicity (CellTiter-Glo, 96 h), EJM cells [5]: 153 ng/mL; IC50 (ng/mL), in vitro cytotoxicity (CellTiter-Glo, 96 h), JJN-3 cells [5]: 36.3 ng/mL; IC50 (ng/mL), in vitro cytotoxicity (CellTiter-Glo, 96 h), L-363 cells [5]: 31.4 ng/mL; IC50 (ng/mL), in vitro cytotoxicity (CellTiter-Glo, 96 h), MM.1R cells [5]: 8.64 ng/mL; IC50 (ng/mL), in vitro cytotoxicity (CellTiter-Glo, 96 h), MM.1S cells [5]: 26.8 ng/mL; IC50 (ng/mL), in vitro cytotoxicity (CellTiter-Glo, 96 h), NCI-H929 cells [5]: 5.99 ng/mL; IC50 (ng/mL), in vitro cytotoxicity (CellTiter-Glo, 96 h), OPM-2 cells [5]: 201 ng/mL; IC50 (ng/mL), in vitro cytotoxicity (CellTiter-Glo, 96 h), U266B1 cells [5]: 39.7 ng/mL
B4	–	–	–	–	–	–	–	–	2.81 ng/mL	3.79 ng/mL	5.55 ng/mL	16.2 ng/mL	1 fold	1.35 fold	1.98 fold	5.75 fold	–
